In patent US20230322953A1 (HARBOUR BIOMED SHANGHAI, published 2023):

Tests used:
[1] = molecular target: T1, human PD-L1 on cells (CHO-K1/hPDL1; MDA-MB-231) (human, UniProt Q9NZQ7 19-290); experiment: competition FACS: biotinylated PD-1 to CHO-K1/hPDL1 cells
T1 construct: whole, on cells

[2] = molecular target: T1, human PD-L1 on cells (CHO-K1/hPDL1; …); experiment: competition FACS: biotinylated PD-1 to CHO-K1/hPDL1 cells (Experiment 2)
[3] = molecular target: T2, human CTLA4 on cells (CHO-K1/hCTLA4; HEK293/hCTLA4; 293F-hCTLA4) (human, UniProt P16410 36-223); experiment: FACS, CHO-K1/hCTLA4 cells (Test 2)
T2 construct: whole, on cells

[4] = molecular target: T1, human PD-L1 on cells (CHO-K1/hPDL1; …); experiment: FACS, CHO-K1/hPDL1 cells (Experiment 2)
[5] = molecular target: T2, human CTLA4 on cells (CHO-K1/hCTLA4; …); experiment: competition FACS: biotinylated B7-1-Fc to CHO-K1/hCTLA4 cells (Test 2)
[6] = molecular target: T1, human PD-L1 on cells (CHO-K1/hPDL1; …); experiment: FACS, MDA-MB-231 cells
[7] = molecular target: T2, human CTLA4 on cells (CHO-K1/hCTLA4; …); experiment: FACS, HEK293/hCTLA4 cells
[8] = molecular target: T3, human CTLA4 on CHO-K1/hCTLA4 cells (human, UniProt P16410 36-223); experiment: flow cytometry on CHO-K1/hCTLA4 cells, Experiment 1
T3 construct: whole, on cells; CHO-K1 cell line highly expressing human CTLA4; also called human CTLA4 cell
T3 sequence (P16410 36-223): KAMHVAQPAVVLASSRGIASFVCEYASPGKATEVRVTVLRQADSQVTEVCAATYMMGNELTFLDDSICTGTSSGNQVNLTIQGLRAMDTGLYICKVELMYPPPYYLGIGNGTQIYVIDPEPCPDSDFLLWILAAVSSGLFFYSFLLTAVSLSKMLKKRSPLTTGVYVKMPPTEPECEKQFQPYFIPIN

T2 sequence (P16410 36-223): as above
T1 sequence (Q9NZQ7 19-290): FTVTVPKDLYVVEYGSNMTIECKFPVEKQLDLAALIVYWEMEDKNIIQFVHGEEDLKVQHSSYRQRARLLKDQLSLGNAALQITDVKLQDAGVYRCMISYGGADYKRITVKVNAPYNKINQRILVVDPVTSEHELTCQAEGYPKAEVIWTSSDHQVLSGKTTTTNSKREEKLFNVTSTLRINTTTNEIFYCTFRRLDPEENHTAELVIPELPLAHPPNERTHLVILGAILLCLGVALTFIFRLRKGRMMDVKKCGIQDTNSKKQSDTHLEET

B1: PR001609 (bispecific antibody, human IgG1, kappa)
light: DIQMTQSPSTLSASVGDRVTVTCRASQSIYIWLAWYQQKPGKAPNLLIYKASSLETGVPSRFSGSGSGTEFTLTISSLQPDDFATYYCQQYYGSSRTFGQGTKVEIKRTVAAPSVFIFPPSDEQLKSGTASVVCLLNNFYPREAKVQWKVDNALQSGNSQESVTEQDSKDSTYSLSSTLTLSKADYEKHKVYACEVTHQGLSSPVTKSFNRGEC
heavy: not shown
chain: EVQLVESGGGLIQPGGSLRLSCAVSGFTVSKNYMSWVRQAPGKGLEWVSVVYSGGSKTYADSVKGRFTISRDNSKNTLYLQMNSLRAEDTAVYYCARAVPHSPSSFDIWGQGTMVTVSSEPKSSDKTHTCPPCPAPELLGGPSVFLFPPKPKDTLMISRTPEVTCVVVDVSHEDPEVKFNWYVDGVEVHNAKTKPREEQYNSTYRVVSVLTVLHQDWLNGKEYKCKVSNKALPAPIEKTISKAKGQPREPQVCTLPPSREEMTKNQVSLSCAVKGFYPSDIAVEWESNGQPENNYKTTPPVLDSDGSFFLVSKLTVDKSRWQQGNVFSCSVMHEALHNHYTQKSLSLSPGK
notes: PD-L1×CTLA4, structure 11 Fab-Fc-VH, knob/hole
fold poorer IC50 than the parent monoclonal antibody [1]: 4 to 5 fold | IC50 [2]: 1.12 nM | Maximum inhibition rate (%) [2]: 81.6% | Maximum MFI [3]: 355 MFI | EC50 [4]: 1.51 nM | Maximum MFI [4]: 11200 MFI | IC50 [5]: 98.3 nM | Maximum inhibition rate (%) [5]: 95%

B2: PR000402 (bispecific antibody, human IgG1, kappa, L234A L235A)
light: DIQMTQSPSTLSASVGDRVTVTCRASQSIYIWLAWYQQKPGKAPNLLIYKASSLETGVPSRFSGSGSGTEFTLTISSLQPDDFATYYCQQYYGSSRTFGQGTKVEIKRTVAAPSVFIFPPSDEQLKSGTASVVCLLNNFYPREAKVQWKVDNALQSGNSQESVTEQDSKDSTYSLSSTLTLSKADYEKHKVYACEVTHQGLSSPVTKSFNRGEC
chain: EVQLVESGGGLVQPGGSLRLSCAASGFTFSSYWMSWVRQAPGKGLEWVANIKQEGSEKYYVDSVKGRFTISRDNAKNSLYLQMNSLRAEDTAVYYCARDRAVAGAFDIWGQGTMVTVSSASTKGPSVFPLAPSSKSTSGGTAALGCLVKDYFPEPVTVSWNSGALTSGVHTFPAVLQSSGLYSLSSVVTVPSSSLGTQTYICNVNHKPSNTKVDKKVEPKSCDKTHTCPPCPAPEAAGGPSVFLFPPKPKDTLMISRTPEVTCVVVDVSHEDPEVKFNWYVDGVEVHNAKTKPREEQYNSTYRVVSVLTVLHQDWLNGKEYKCKVSNKALGAPIEKTISKAKGQPREPQVYTLPPSREEMTKNQVSLTCLVKGFYPSDIAVEWESNGQPENNYKTTPPVLDSDGSFFLYSKLTVDKSRWQQGNVFSCSVMHEALHNHYTQKSLSLSPGKLGGGGSGGGGSGGGGSRTEVQLVESGGGLIQPGGSLRLSCAVSGFTVSKNYMSWVRQAPGKGLEWVSVVYSGGSKTYADSVKGRFTISRDNSKNTLYLQMNSLRAEDTAVYYCARAVPHSPSSFDIWGQGTMVTVSS
notes: PD-L1×CTLA4, structure 5
EC50 [6]: 0.259 nM | Maximum MFI [6]: 841 MFI | EC50 [7]: 2.4 nM | Maximum MFI [7]: 1760 MFI

B3: HER2xCTLA4 bispecific antibody molecule PR000916 (bispecific antibody, human IgG1, kappa)
light: not shown
heavy: not shown
chain: EVQLVESGGGLIQPGGSLRLSCAVSGFTVSKNYMSWVRQAPGKGLEWVSVVYSGGSKTYADSVKGRFTISRDNSKNTLYLQMNSLRAEDTAVYYCARAVPHSPSSFDIWGQGTMVTVSSEPKSSDKTHTCPPCPAPELLGGPSVFLFPPKPKDTLMISRTPEVTCVVVDVSHEDPEVKFNWYVDGVEVHNAKTKPREEQYNSTYRVVSVLTVLHQDWLNGKEYKCKVSNKALPAPIEKTISKAKGQPREPQVCTLPPSREEMTKNQVSLSCAVKGFYPSDIAVEWESNGQPENNYKTTPPVLDSDGSFFLVSKLTVDKSRWQQGNVFSCSVMHEALHNHYTQKSLSLSPGK
notes: Structure 11 Fab-Fc-VH (bivalent asymmetric); PR000210 Fab (normal), one PR000184 VH
EC50 [8]: 4.68 nM | Maximum MFI [8]: 151 MFI

B4: PR001610 (bispecific antibody, human IgG1, kappa)
light: DIQMTQSPSTLSASVGDRVTVTCRASQSIYIWLAWYQQKPGKAPNLLIYKASSLETGVPSRFSGSGSGTEFTLTISSLQPDDFATYYCQQYYGSSRTFGQGTKVEIKRTVAAPSVFIFPPSDEQLKSGTASVVCLLNNFYPREAKVQWKVDNALQSGNSQESVTEQDSKDSTYSLSSTLTLSKADYEKHKVYACEVTHQGLSSPVTKSFNRGEC
heavy: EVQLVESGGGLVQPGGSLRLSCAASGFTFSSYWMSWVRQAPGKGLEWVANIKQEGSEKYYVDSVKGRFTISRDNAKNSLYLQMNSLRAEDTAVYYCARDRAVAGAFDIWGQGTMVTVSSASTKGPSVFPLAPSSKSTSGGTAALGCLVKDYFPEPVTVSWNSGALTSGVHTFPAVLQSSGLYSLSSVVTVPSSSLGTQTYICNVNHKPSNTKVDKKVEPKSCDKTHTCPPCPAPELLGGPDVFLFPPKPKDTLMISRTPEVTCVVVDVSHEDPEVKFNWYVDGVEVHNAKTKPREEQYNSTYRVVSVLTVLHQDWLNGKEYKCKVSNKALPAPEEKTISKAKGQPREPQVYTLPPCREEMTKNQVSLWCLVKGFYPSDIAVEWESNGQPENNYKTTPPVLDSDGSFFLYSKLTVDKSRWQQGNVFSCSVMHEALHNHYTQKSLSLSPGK
chain: EVQLVESGGGLIQPGGSLRLSCAVSGFTVSKNYMSWVRQAPGKGLEWVSVVYSGGSKTYADSVKGRFTISRDNSKNTLYLQMNSLRAEDTAVYYCARAVPHSPSSFDIWGQGTMVTVSSEPKSSDKTHTCPPCPAPELLGGPDVFLFPPKPKDTLMISRTPEVTCVVVDVSHEDPEVKFNWYVDGVEVHNAKTKPREEQYNSTYRVVSVLTVLHQDWLNGKEYKCKVSNKALPAPEEKTISKAKGQPREPQVCTLPPSREEMTKNQVSLSCAVKGFYPSDIAVEWESNGQPENNYKTTPPVLDSDGSFFLVSKLTVDKSRWQQGNVFSCSVMHEALHNHYTQKSLSLSPGK
notes: PD-L1×CTLA4, structure 11, knob/hole, DE
fold poorer IC50 than the parent monoclonal antibody [1]: 4 to 5 fold | IC50 [2]: 1.23 nM | Maximum inhibition rate (%) [2]: 80.2% | Maximum MFI [3]: 468 MFI | EC50 [4]: 1.37 nM | Maximum MFI [4]: 11100 MFI | IC50 [5]: 96.6 nM | Maximum inhibition rate (%) [5]: 61.3%

B5: HER2xCTLA4 bispecific antibody molecule PR000917 (bispecific antibody, human IgG1, kappa)
light: not shown
heavy: not shown
chain: EVQLVESGGGLIQPGGSLRLSCAVSGFTVSKNYMSWVRQAPGKGLEWVSVVYSGGSKTYADSVKGRFTISRDNSKNTLYLQMNSLRAEDTAVYYCARAVPHSPSSFDIWGQGTMVTVSSEPKSSDKTHTCPPCPAPELLGGPDVFLFPPKPKDTLMISRTPEVTCVVVDVSHEDPEVKFNWYVDGVEVHNAKTKPREEQYNSTYRVVSVLTVLHQDWLNGKEYKCKVSNKALPAPEEKTISKAKGQPREPQVCTLPPSREEMTKNQVSLSCAVKGFYPSDIAVEWESNGQPENNYKTTPPVLDSDGSFFLVSKLTVDKSRWQQGNVFSCSVMHEALHNHYTQKSLSLSPGK
notes: Structure 11 Fab-Fc-VH; PR000210 Fab (normal), one PR000184 VH; DE: S239D, I332E
EC50 [8]: 9.8 nM | Maximum MFI [8]: 142 MFI

B6: PR001574 (bispecific antibody, human IgG1, kappa)
chain: EVQLVESGGGLIQPGGSLRLSCAVSGFTVSKNYMSWVRQAPGKGLEWVSVVYSGGSKTYADSVKGRFTISRDNSKNTLYLQMNSLRAEDTAVYYCARAVPHSPSSFDIWGQGTMVTVSSKLEPKSSDKTHTPPPPPRTDIQMTQSPSTLSASVGDRVTVTCRASQSIYIWLAWYQQKPGKAPNLLIYKASSLETGVPSRFSGSGSGTEFTLTISSLQPDDFATYYCQQYYGSSRTFGQGTKVEIKRTVAAPSVFIFPPSDEQLKSGTASVVCLLNNFYPREAKVQWKVDNALQSGNSQESVTEQDSKDSTYSLSSTLTLSKADYEKHKVYACEVTHQGLSSPVTKSFNRGEC
heavy: not shown
notes: PD-L1×CTLA4, structure 4
fold poorer IC50 than the parent monoclonal antibody [1]: 2 to 3 fold | IC50 [2]: 0.88 nM | Maximum inhibition rate (%) [2]: 81.1% | EC50 [3]: 12 nM | Maximum MFI [3]: 677 MFI | EC50 [4]: 0.93 nM | Maximum MFI [4]: 6710 MFI | IC50 [5]: 4.49 nM | Maximum inhibition rate (%) [5]: 99.8%

B7: PR001575 (bispecific antibody, human IgG1, kappa)
chain 1: EVQLVESGGGLIQPGGSLRLSCAVSGFTVSKNYMSWVRQAPGKGLEWVSVVYSGGSKTYADSVKGRFTISRDNSKNTLYLQMNSLRAEDTAVYYCARAVPHSPSSFDIWGQGTMVTVSSKLEPKSSDKTHTPPPPPRTDIQMTQSPSTLSASVGDRVTVTCRASQSIYIWLAWYQQKPGKAPNLLIYKASSLETGVPSRFSGSGSGTEFTLTISSLQPDDFATYYCQQYYGSSRTFGQGTKVEIKRTVAAPSVFIFPPSDEQLKSGTASVVCLLNNFYPREAKVQWKVDNALQSGNSQESVTEQDSKDSTYSLSSTLTLSKADYEKHKVYACEVTHQGLSSPVTKSFNRGEC
chain 2: not shown
notes: PD-L1×CTLA4, structure 9
fold poorer IC50 than the parent monoclonal antibody [1]: 4 to 6 fold | IC50 [2]: 1.74 nM | Maximum inhibition rate (%) [2]: 81.7% | EC50 [3]: 5.08 nM | Maximum MFI [3]: 415 MFI | EC50 [4]: 2.41 nM | Maximum MFI [4]: 5880 MFI | IC50 [5]: 3.79 nM | Maximum inhibition rate (%) [5]: 100%

B8: PR001577 (bispecific antibody, human IgG1, kappa)
chain: EVQLVESGGGLIQPGGSLRLSCAVSGFTVSKNYMSWVRQAPGKGLEWVSVVYSGGSKTYADSVKGRFTISRDNSKNTLYLQMNSLRAEDTAVYYCARAVPHSPSSFDIWGQGTMVTVSSKLEPKSSDKTHTPPPPPRTDIQMTQSPSTLSASVGDRVTVTCRASQSIYIWLAWYQQKPGKAPNLLIYKASSLETGVPSRFSGSGSGTEFTLTISSLQPDDFATYYCQQYYGSSRTFGQGTKVEIKRTVAAPSVFIFPPSDEQLKSGTASVVCLLNNFYPREAKVQWKVDNALQSGNSQESVTEQDSKDSTYSLSSTLTLSKADYEKHKVYACEVTHQGLSSPVTKSFNRGEC
heavy: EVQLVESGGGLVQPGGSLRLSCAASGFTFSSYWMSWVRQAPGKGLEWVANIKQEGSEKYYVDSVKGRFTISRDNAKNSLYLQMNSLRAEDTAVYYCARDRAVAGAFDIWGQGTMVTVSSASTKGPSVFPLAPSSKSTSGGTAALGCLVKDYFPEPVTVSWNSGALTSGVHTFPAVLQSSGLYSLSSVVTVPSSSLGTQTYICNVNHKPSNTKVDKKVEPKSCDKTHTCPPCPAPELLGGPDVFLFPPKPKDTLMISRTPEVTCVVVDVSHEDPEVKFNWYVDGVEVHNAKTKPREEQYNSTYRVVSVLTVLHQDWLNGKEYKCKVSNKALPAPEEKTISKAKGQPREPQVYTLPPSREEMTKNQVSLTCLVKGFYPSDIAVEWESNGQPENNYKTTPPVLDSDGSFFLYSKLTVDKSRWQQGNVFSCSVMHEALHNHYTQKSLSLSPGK
notes: PD-L1×CTLA4, structure 4, Fc S239D, I332E
fold poorer IC50 than the parent monoclonal antibody [1]: 2 to 3 fold | IC50 [2]: 0.61 nM | Maximum inhibition rate (%) [2]: 81% | EC50 [3]: 8.52 nM | Maximum MFI [3]: 585 MFI | EC50 [4]: 0.96 nM | Maximum MFI [4]: 6610 MFI | IC50 [5]: 4.88 nM | Maximum inhibition rate (%) [5]: 99.7%

B9: PR001572 (bispecific antibody, human IgG1, kappa)
chain 1: EVQLVESGGGLIQPGGSLRLSCAVSGFTVSKNYMSWVRQAPGKGLEWVSVVYSGGSKTYADSVKGRFTISRDNSKNTLYLQMNSLRAEDTAVYYCARAVPHSPSSFDIWGQGTMVTVSSKLEPKSSDKTHTPPPPPRTDIQMTQSPSTLSASVGDRVTVTCRASQSIYIWLAWYQQKPGKAPNLLIYKASSLETGVPSRFSGSGSGTEFTLTISSLQPDDFATYYCQQYYGSSRTFGQGTKVEIKRTVAAPSVFIFPPSDEQLKSGTASVVCLLNNFYPREAKVQWKVDNALQSGNSQESVTEQDSKDSTYSLSSTLTLSKADYEKHKVYACEVTHQGLSSPVTKSFNRGEC
chain 2: not shown
notes: PD-L1×CTLA4, structure 9 2×VH-IgG
fold poorer IC50 than the parent monoclonal antibody [1]: 4 to 6 fold | IC50 [2]: 1.4 nM | Maximum inhibition rate (%) [2]: 80.7% | EC50 [3]: 2.91 nM | Maximum MFI [3]: 434 MFI | EC50 [4]: 1.07 nM | Maximum MFI [4]: 5830 MFI | IC50 [5]: 2.98 nM | Maximum inhibition rate (%) [5]: 100%
